Measurements as given in US20240327530A1 (ICHNOS SCIENCES, published 2024).
Positions count from the first letter of the chain named. Names and notes keep the numbering of the source.

T1: Recombinant mouse IL-1RAP Fc fusion protein (Sino Biologicals, catalog no. 52657-M02H) (mouse, UniProt Q61730 21-350)
T1 construct: Bought; not shown: Fc part of the bought fusion protein
T1 sequence: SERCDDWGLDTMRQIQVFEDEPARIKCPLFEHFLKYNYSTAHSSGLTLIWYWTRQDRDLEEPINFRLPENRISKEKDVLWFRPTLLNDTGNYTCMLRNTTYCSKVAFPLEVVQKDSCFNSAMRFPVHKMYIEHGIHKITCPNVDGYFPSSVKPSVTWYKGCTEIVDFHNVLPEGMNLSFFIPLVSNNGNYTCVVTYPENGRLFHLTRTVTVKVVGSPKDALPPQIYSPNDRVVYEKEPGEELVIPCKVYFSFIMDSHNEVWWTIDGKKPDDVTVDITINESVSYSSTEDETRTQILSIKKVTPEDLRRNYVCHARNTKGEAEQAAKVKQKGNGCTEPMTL

T2: Recombinant human IL-1RAP Fc fusion protein (Acrobiosystems, catalog no. ILP-H5256) (human, UniProt Q9NPH3 21-359, limits assumed)
T2 construct: Bought; not shown: Fc part of the bought fusion protein
T2 sequence: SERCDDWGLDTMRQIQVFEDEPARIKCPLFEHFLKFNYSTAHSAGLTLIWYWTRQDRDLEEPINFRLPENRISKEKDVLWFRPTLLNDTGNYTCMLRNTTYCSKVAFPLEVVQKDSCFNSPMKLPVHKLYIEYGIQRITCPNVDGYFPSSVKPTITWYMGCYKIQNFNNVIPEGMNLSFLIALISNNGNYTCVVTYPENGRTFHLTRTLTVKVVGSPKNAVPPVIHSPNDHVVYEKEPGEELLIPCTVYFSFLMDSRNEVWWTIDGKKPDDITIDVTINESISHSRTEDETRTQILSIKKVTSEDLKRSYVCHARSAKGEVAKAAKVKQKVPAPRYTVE

T3: Recombinant cynomolgus monkey IL-1RAP-ECD(S21-E359)-avi-his protein (cynomolgus monkey, UniProt P59822 21-359 (rhesus entry))
T3 construct: also called cyno IL-1RAP-ECD-Avi-His; recombinant cynomolgus monkey IL-1RAP-avi-his protein
T3 sequence: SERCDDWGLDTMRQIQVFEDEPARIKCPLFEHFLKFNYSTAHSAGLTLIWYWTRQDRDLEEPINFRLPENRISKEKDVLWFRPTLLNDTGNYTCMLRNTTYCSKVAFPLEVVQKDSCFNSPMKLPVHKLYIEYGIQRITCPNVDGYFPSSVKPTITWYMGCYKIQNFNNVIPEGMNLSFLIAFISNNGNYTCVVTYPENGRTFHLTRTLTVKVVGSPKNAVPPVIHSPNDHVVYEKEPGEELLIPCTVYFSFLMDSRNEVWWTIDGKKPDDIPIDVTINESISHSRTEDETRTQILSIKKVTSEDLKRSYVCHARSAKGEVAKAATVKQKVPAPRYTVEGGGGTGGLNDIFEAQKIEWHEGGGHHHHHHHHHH

T4: Recombinant human IL-1RAP-ECD(S21-E359)-avi-his protein (human, UniProt Q9NPH3 21-359)
T4 construct: Biotinylated where loaded on streptavidin; also called human IL-1RAP-ECD-Avi-His; recombinant human IL-1RAP-avi-his protein
T4 sequence: T3 sequence with F183L, P273T, T326K

B1: Anti-IL-1RAP-C3-MP01-A2 Fab (Fab, V domains shown)
VH: EVQLLESGGGLVQPGGSLRLSCAASGFTFAEYAMNWVRQAPGKGLEWVSAISYDGEGTLYADSVKGRFTISRDNSKNTLYLQMNSLRAEDTAVYYCARFRYYTAFDYWGQGTLVTVSS
VL: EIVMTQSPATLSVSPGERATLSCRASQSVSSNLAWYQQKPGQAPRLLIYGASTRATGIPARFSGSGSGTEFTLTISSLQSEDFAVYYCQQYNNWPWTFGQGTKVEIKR
B2: Anti-IL-1RAP-C3-MP01-F5 Fab (Fab, V domains shown)
VH: B1 VH with T28P, F29L, A30S, E31N, A33G, N35S
VL: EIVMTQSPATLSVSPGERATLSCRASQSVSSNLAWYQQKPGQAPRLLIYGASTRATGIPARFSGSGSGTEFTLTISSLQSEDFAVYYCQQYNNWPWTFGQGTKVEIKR
B3: Anti-IL-1RAP-C3-MP01-B5 Fab (Fab, V domains shown)
VH: B1 VH with T28I, A30S, E31T, A33G, N35G
VL: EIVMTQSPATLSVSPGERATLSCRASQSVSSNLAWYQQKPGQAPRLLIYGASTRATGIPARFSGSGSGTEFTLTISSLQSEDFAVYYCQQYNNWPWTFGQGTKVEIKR
B4: Anti-IL-1RAP-C3-MP02-B8 Fab (Fab, V domains shown)
VH: B1 VH with A30E, E31H, Y32S, A33S, M34A, N35G
VL: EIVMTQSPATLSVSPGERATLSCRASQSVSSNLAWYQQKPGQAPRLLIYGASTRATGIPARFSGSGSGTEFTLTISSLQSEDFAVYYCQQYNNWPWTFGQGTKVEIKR
B5: Anti-IL-1RAP-C3-MP01-G10 Fab (Fab, V domains shown)
VH: B1 VH with A30S, E31H, A33G, N35S
VL: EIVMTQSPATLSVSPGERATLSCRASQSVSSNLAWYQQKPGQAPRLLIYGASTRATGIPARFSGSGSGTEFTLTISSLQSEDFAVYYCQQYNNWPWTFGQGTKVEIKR
B6: Anti-IL-1RAP-C3-MP01-A3 Fab (Fab, V domains shown)
VH: B1 VH with T28I, A30S, E31H, A33G, N35S
VL: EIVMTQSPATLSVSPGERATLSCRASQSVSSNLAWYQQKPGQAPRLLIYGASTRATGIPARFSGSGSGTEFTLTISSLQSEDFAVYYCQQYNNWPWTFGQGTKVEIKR
notes: also called Fab clone anti-IL-1RAP-C3-A3
B7: Anti-IL-1RAP-C3-MP01-B7 Fab (Fab, V domains shown)
VH: B1 VH with F29L, A30S, E31G, Y32F, A33S, N35S
VL: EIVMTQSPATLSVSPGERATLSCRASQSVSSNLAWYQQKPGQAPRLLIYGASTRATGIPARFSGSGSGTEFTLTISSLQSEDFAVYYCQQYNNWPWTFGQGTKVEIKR
B8: Anti-IL-1RAP-C3-MP01-D2 Fab (Fab, V domains shown)
VH: B1 VH with A30S, E31Q, Y32F, A33G, N35T
VL: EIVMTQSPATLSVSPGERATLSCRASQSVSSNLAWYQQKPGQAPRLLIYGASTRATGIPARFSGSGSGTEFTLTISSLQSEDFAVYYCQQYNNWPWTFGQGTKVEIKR
B9: Anti-IL-1RAP-C3-MP02-G2 Fab (Fab, V domains shown)
VH: B1 VH with F29Y, A30D, E31V, Y32A, A33P, N35G
VL: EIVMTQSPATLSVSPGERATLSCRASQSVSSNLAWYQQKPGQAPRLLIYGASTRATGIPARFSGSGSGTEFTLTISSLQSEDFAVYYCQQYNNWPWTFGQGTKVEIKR
B10: Anti-IL-1RAP-C3-MP02-F6 Fab (Fab, V domains shown)
VH: B1 VH with A30P, E31D, A33P, M34L, N35G
VL: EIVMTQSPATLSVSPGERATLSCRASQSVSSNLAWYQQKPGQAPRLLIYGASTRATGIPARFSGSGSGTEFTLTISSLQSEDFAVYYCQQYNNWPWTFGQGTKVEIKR
B11: Anti-IL-1RAP-C8-H1B-H10-Fab (Fab, V domains shown)
VH: QVQLVQSGAEVKKPGSSVKVSCKASGSTWEPYAIQWVRQAPGQGLEWMGYIIPLHGQVDYAQKFQGRVTITADESTSTAYMELSSLRSEDTAVYYCARGQTLYDSGRQFDIWGQGTLVTVSS
VL: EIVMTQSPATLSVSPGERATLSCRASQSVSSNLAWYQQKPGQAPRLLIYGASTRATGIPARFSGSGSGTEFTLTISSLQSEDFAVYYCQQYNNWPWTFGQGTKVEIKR
B12: Anti-IL-1RAP-C8-recA-Fab (Fab, V domains shown)
VH: B11 VH with L54S, H55L, Q57G, V58Y
VL: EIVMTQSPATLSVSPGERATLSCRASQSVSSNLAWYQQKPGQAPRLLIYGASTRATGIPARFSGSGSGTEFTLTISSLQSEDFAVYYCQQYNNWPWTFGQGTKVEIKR
B13: Anti-IL-1RAP-C8-H2B-B5-Fab (Fab, V domains shown)
VH: B11 VH with S27G, T28Q, W29F, E30S, P31E, L54T, H55V, Q57G, V58F
VL: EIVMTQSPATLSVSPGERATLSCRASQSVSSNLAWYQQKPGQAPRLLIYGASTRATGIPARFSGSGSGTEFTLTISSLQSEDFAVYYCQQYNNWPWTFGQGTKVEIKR
B14: Anti-IL-1RAP-C8-H2B-C10-Fab (Fab, V domains shown)
VH: B11 VH with S27G, T28Q, W29F, E30S, P31E, L54S, H55L, Q57G, V58Y
VL: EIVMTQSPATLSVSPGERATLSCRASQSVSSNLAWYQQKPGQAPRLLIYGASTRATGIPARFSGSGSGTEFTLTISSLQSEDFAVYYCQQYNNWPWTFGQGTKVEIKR
notes: also called ISB 880-C8-H2B-C10
B15: Anti-IL-1RAP-C8-recB-Fab (Fab, V domains shown)
VH: B11 VH with S27G, T28P, W29R, E30R, P31A, L54S, H55L, Q57G, V58Y
VL: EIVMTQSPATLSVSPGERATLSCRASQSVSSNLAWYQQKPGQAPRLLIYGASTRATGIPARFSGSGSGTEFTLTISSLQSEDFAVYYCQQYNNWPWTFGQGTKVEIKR
B16: Anti-IL-1RAP-C8-recC-Fab (Fab, V domains shown)
VH: B11 VH with T28P, W29A, L54S, H55L, Q57G, V58Y
VL: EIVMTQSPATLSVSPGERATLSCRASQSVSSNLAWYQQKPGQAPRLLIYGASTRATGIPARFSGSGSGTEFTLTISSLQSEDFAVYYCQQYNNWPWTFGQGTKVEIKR
notes: also called Fab clone anti-IL-1RAP-C8-RecC
B17: Anti-IL-1RAP-C8-recC IgG1 LALA (antibody, V domains shown)
VH: B11 VH with T28P, W29A, L54S, H55L, Q57G, V58Y
VL: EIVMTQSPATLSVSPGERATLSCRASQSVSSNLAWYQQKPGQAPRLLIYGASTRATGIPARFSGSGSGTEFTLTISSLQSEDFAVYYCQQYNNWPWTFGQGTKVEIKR
notes: Human IgG1 with L234A/L235A (EU); whether it is the full heavy chain or only VH is not clear; also called ISB 880-C8-recC
B18: Anti-IL-1RAP-C8-RecC-ET-IgG1LALA (antibody, V domains shown)
VH: B11 VH with T28P, W29A, L54S, H55L, Q57G, V58Y, D104E, S105T
VL: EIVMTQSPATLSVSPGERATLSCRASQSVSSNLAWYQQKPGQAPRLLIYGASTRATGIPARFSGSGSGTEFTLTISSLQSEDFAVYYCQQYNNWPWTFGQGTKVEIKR
notes: Human IgG1 LALA; also called ISB 880-C8-recC-ET
B19: Anti-IL-1RAP-C8-RecC-DA-IgG1LALA (antibody, V domains shown)
VH: B11 VH with T28P, W29A, L54S, H55L, Q57G, V58Y, S105A
VL: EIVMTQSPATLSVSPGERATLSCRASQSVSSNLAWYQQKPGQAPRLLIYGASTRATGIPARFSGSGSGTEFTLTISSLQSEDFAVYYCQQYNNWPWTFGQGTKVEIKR
notes: Human IgG1 LALA; D100/S100a (Kabat) of RecC replaced by DA; also called ISB 880-C8-recC-DA
B20: Anti-IL-1RAP-C8-RecC-AA-IgG1LALA (antibody, V domains shown)
VH: B11 VH with T28P, W29A, L54S, H55L, Q57G, V58Y, D104A, S105A
VL: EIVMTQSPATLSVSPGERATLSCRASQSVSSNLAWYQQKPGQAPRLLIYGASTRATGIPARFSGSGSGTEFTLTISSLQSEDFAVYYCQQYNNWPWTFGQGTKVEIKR
notes: Human IgG1 LALA; also called ISB 880-C8-recC-AA
B21: Anti-IL-1RAP-C8-RecC-AS-IgG1LALA (antibody, V domains shown)
VH: B11 VH with T28P, W29A, L54S, H55L, Q57G, V58Y, D104A
VL: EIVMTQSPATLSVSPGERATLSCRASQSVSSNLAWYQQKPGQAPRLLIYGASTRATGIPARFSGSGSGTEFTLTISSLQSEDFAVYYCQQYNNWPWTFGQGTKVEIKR
notes: Human IgG1 LALA; D100/S100a (Kabat) of RecC replaced by AS; also called ISB 880-C8-recC-AS

The binders below were run against T1, Recombinant mouse IL-1RAP Fc fusion … (assay: SPR, mouse IL-1RAP-Fc captured, Fab as analyte (0.04 to 5 nM)).
Description: Affinities of the Fab fragments to mouse IL-1RAP were measured as described in Example 1, with the following modifications. Measurements were performed on Series S CM5 sensor chips (BIACORE™ T200, BIACORE™, GE […]®, catalog no. BR100530) coupled with anti-human IgG Fc (BIACORE™, GE […]®, catalog no. BR100839) using a commercial amine coupling kit (BIACORE™, GE […]®, catalog no. BR100050). SPR measurements were performed with commercially available recombinant mouse IL-1RAP Fc fusion protein (Sino Biologicals, catalog no. 52657-M02H). The affinities to mouse IL-1RAP were assessed by immobilizing mouse IL-1RAP-Fc and using Fab fragments as analyte. Around 60 RUs of mouse IL-1RAP Fc fusion protein were captured on fc2 of a Series S CM5 sensor chip coupled with anti-human IgG Fc. Fab fragments were injected in single cycle kinetic at different concentrations ranging from 0.04 to 5 nM, in HBS-EP+ buffer (BIACORE™, GE […]®, catalog no. BR100669) at a flow rate of 30 μl/min for 3 min on fc1 and fc2 (fc1 being used as reference). Dissociation was monitored for 10 min.
In the case of B1, the Kd is reported as 680 pM. For B2, the Kd was 280 pM. For B3, the Kd was 210 pM. For B4, the Kd was 490 pM. B5 showed a Kd of 210 pM. In the case of B6, the Kd is reported as 140 pM. For B7, the Kd was 170 pM. For B8, the Kd was 220 pM. In the case of B9, the Kd is reported as 320 pM. B10 was tested, and the Kd was 260 pM.

These binders were tested against T2, Recombinant human IL-1RAP Fc fusion … (assay: SPR, human IL-1RAP-Fc captured, Fab as analyte (0.08 to 50 nM)).
Description: BR100669) at a flow rate of 30 μl/min for 3 min on fc1 and fc2 (fc1 being used as reference). Dissociation was monitored for 5 min. After each cycle, the surface was regenerated with 60 μl of regeneration solution provided with anti-human IgG Fc capture kit (BIACORE™, GE […]®, catalog no. BR100839) or BiotinCAPture kit (BIACORE™, GE […]®, catalog no. 28920234) respectively. Experimental data were processed using the 1:1 Langmuir kinetic fitting model. Measurements included zero-concentration samples for referencing. Chi², U- and residual values were used to evaluate the quality of a fit between the experimental data and individual binding models. […]
In the case of B11, the Kd is reported as 209 pM. B12 showed a Kd of 51 pM. Work on B13 yielded a Kd of 1370 pM. B14 showed a Kd of 589 pM. With B15 the Kd was 52 pM. B16 gave a Kd of 38 pM.

These binders were tested against T3, Recombinant cynomolgus monkey … (assay: SPR, IgG1 LALA captured by anti-human Fc, cyno IL-1RAP-avi-his as analyte, 1:1 fit).
Description: (§1) Surface plasmon resonance (SPR) was used to measure the binding affinities of the human IgG1 LALA molecules for human and cynomolgus monkey IL-1RAP. Affinities were measured on a BIACORE™ T200 instrument (BIACORE™, GE […]®) at 25° C. and analyzed with the BIACORE™ T200 Evaluation Software (v3.1). Measurements were performed on Series S CM5 sensor chips (BIACORE™ T200, BIACORE™, GE […]®, catalog no. BR100530) coupled with anti-human IgG Fc (BIACORE™, GE […]®, catalog no. BR100839) using a commercial amine coupling kit (BIACORE™, GE […]®, catalog no. BR100050). SPR measurements were performed with recombinant human IL-1RAP-avi-his protein produced in house (SEQ ID NO. 1) or recombinant cynomolgus monkey IL-1RAP-avi-his protein produced in house (SEQ ID NO. 2). The affinities to human and cynomolgus monkey IL-1RAP were assessed by immobilizing anti-IL-1RAP IgG1 LALA molecules and using IL-1RAP proteins as analyte. Around 150 RU of human IgG1 LALA were captured on fc2 of a Series S CM5 sensor chip coupled with anti-human IgG Fc. Recombinant human IL-1RAP-avi-his protein or recombinant cynomolgus monkey IL-1RAP-avi-his protein was injected in multi cycle kinetic at different concentrations ranging from 0.14 to 100 nM, in HBS-EP+ buffer (BIACORE™, GE […]®, catalog no. BR100669) at a flow rate of 30 μl/min for 3 min on fc1 and fc2 (fc1 being used as reference). Dissociation was monitored for 12 min. After each cycle, the surface was regenerated with 60 μl of regeneration solution provided with anti-human IgG Fc capture kit (BIACORE™, GE […]®, catalog no. BR100839). Experimental data were processed using the 1:1 Langmuir kinetic fitting model. Measurements included zero-concentration samples for referencing. Chi², U- and residual values were used to evaluate the quality of a fit between the experimental data and individual binding models.
Binder B17 has a Kd of 276 pM, a koff of 0.000236 s⁻¹ and a kon of 854000 M⁻¹ s⁻¹. Work on B18 yielded a Kd of 336 pM, a koff of 0.000308 s⁻¹ and a kon of 916000 M⁻¹ s⁻¹. For B19, the Kd was 145 pM, the koff was 0.00019 s⁻¹ and the kon was 1.31e+06 M⁻¹ s⁻¹. In the case of B20, the Kd is reported as 240 pM, the koff is reported as 0.000187 s⁻¹ and the kon is reported as 777000 M⁻¹ s⁻¹. For B21, the Kd was 254 pM, the koff was 0.00016 s⁻¹ and the kon was 628000 M⁻¹ s⁻¹.

Each binder was assayed against T4, Recombinant human … (assay: SPR, IgG1 LALA captured by anti-human Fc, human IL-1RAP-avi-his as analyte, 1:1 fit).
Description: as §1
Binder B17 has a Kd of 237 pM, a koff of 0.000199 s⁻¹ and a kon of 840000 M⁻¹ s⁻¹. B18 gave a Kd of 278 pM, a koff of 0.000253 s⁻¹ and a kon of 916000 M⁻¹ s⁻¹. For B19, the Kd was 140 pM, the koff was 0.000162 s⁻¹ and the kon was 1.16e+06 M⁻¹ s⁻¹. In the case of B20, the Kd is reported as 267 pM, the koff is reported as 0.000169 s⁻¹ and the kon is reported as 634000 M⁻¹ s⁻¹. B21 was tested, and the Kd was 287 pM, the koff was 0.000161 s⁻¹ and the kon was 561000 M⁻¹ s⁻¹.
